Measurements as given in PMC6281700, “Biochemical Characterization of Kluyveromyces lactis Adenine Deaminase and Guanine Deaminase and Their Potential Application in Lowering Purine Content in Beer” (Frontiers in Bioengineering and Biotechnology, 2018).

What was measured:
purified protein [1] = substrate: Nc1ncnc2nc[nH]c12; assay: purified protein; assay type: biochemical, Kluyveromyces lactis; conditions: 100 mM potassium phosphate, pH 6.0, 30°C
purified protein [2] = substrate: Nc1nc2nc[nH]c2c(=O)[nH]1; assay: purified protein; assay type: biochemical, Kluyveromyces lactis; conditions: 100 mM phosphate, pH 7.0, 25°C

Protein	Km (purified protein [1]) [µM]	kcat (purified protein [1]) [s⁻¹]	kcat/Km (purified protein [1]) [M⁻¹ s⁻¹]	Km (purified protein [2]) [µM]	kcat (purified protein [2]) [s⁻¹]	kcat/Km (purified protein [2]) [M⁻¹ s⁻¹]
KlacADA (Kluyveromyces lactis NRRL Y-1140) (protein, full length, N-terminal 6xHis (pET28c NdeI/XhoI), E. coli BL21(DE3); 46 kDa monomer; gene at chromosome E 2,064,516-2,065,583, no introns (1068 bp, about 355 residues)) MAKFECTDEVTNFLTELPKCEHHLHLEGTLEPELLFQLVERNGVQLPGTFPKTVNELHVIYNNFADLQDFLNYYYIGCNVLLSEDDFFELAWSYFKRVSTQGLRHAEVFYDPQSHTSRGISLEVVTKGFERACAKAQEEFNISTKLIMCLLRHCPVEECMDTVKSAKSLIESGVIDGLGLDSSERPFPPELFVECYQLAKSYNKELQLTAHAGEEGDPSFVTNTLDLLETTRIDHGVRSIEDAELIKRLAAQKVMLTLCPLSNVKLQVVKDVSELPLQEFLDNDVPFSINSDDPAYFGGYILQNYLEVYSRFGWSKAVWAKIARQSIEGSWCDPKRKQELLSEVSEVVNKYVNLP	680 ± 4.6	8.1 ± 1.3	11000			
KlacGDA (Kluyveromyces lactis NRRL Y-1140) (protein, full length, N-terminal 6xHis (pET28c NdeI/XhoI), E. coli BL21(DE3); 106 kDa dimer; gene at chromosome D 1,643,703-1,645,193 (1491 bp, about 496 residues)) MAPVTINMVKSEESFIDEPFHPEGVKIIVHYGNLIDTPELGQLRIRLKCAVGICSTSGVILFIEEGCDDPVIAALNYDRYLKDIDIHVIFNSVSDPAGKDSFYFPGFVDTHIHASQYPNCGIFGNSTLLDWLDTYTFPLESSLNDENIAALTYDAVISQTLKHGTTCASYFTTIDSNSSKIMADLCKSKGQRAFIGKVCMNQHSPSYYQETIEECKDASLDLIEYILKDLNSPLIKPIITPRFAITCSSALMDSLSEVAEEFDLPIQTHLNENDSEIAFVKELFKDCHSYTDVYHKHGLLNGKTVLAHCIHLEDSEIELLKKSSAGISHCPISNSSLTSGECRVKELLNYGLKVSLGSDVSGGFTVSILENARQALLVSRHRAMSVEDPERKEECKLSVAEVLYLATMGGAKVLNLSDKIGSFDVGKEFDAQLIDLSTKGSNVSIFPWQKVTNDKIQPNGKDRIKLENIVAKWLFNGDDRNVKSVWVRGKLCHQNL				83 ± 2.7	7.3 ± 1.2	87000
